Source: US20190135928A1 (Bristol-Myers Squibb, published 2019)

Legend:
[1] = target: T1, soluble TL1A-SH6 protein (his tagged) (Homo sapiens (Human), UniProt O95150 57-251, limits assumed); test: FACS competition: TL1A SH6 at 200 ng/ml pre-incubated with dilutions of 10A4.F7, then added to hDR3 CHO cells, PE anti 6xHis detection
T1 construct: also called TL1A SH6 antigen; not shown: His tag (detected with anti 6xHis antibody)
T1 sequence: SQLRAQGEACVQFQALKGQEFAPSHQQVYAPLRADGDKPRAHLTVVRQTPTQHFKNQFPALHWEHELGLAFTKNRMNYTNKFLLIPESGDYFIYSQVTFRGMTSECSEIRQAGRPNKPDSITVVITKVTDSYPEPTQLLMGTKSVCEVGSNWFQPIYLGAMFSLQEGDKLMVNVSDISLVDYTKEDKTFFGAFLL
Procedure: (§1) TL1A SH6 at 200 ng/ml (50 ul) was incubated with dilutions of 10A4.F7 (50 ul) antibody or control IgG1 antibody (all reagents in FACS buffer). The mixture was incubated for 30 minutes and then added to 10⁵ hDR3 CHO cells in 100 ul of FACS buffer and incubated for 1 hr. Cells were washed twice in FACS buffer and TL1A binding to DR3 CHO cells was detected by staining cells with PE anti 6×His antibody (R&D systems) and evaluated by FACS.
(§2) Identification of anti-TL1A antibodies that block TL1A binding to DR3 were also done by FACS by using soluble TL1A-SH6 protein (his tagged) binding to hDR3 expressed on CHO cells (DR3 CHO). Anti-TL1A or control antibodies were incubated with TL1A SH6 antigen at 0.1-0.5 ug/ml for 30 minutes in FACS buffer and then hDR3 CHO cells were added to the antibody TL1A mix and incubated for 30 minutes. Cells were washed and TL1A binding to hDR3 CHO cells was detected with PE anti-His antibody followed by FACS. Blocking antibodies prevent TL1A SH6 from binding to hDR3 CHO cells (FIG. 2).

[2] = target: T1, soluble TL1A-SH6 protein (his tagged); test: FACS, inhibition of the binding of TL1A SH6 (200 ng/ml) to hDR3 CHO cells, detection with PE anti-6xHis; the box prints no unit, the axis is Log nM
Procedure: as §1, §2

[3] = target: T2, TL1A expressed on transfected CHO cells (Homo sapiens (Human), UniProt O95150 1-251); test: FACS titration on TL1A CHO cells, detection with PE anti-human IgG (Fc specific); the box prints no unit, the axis is IgG (nM)
T2 construct: also called TL1A CHO cells; TL1A expressing CHOs cells
T2 sequence: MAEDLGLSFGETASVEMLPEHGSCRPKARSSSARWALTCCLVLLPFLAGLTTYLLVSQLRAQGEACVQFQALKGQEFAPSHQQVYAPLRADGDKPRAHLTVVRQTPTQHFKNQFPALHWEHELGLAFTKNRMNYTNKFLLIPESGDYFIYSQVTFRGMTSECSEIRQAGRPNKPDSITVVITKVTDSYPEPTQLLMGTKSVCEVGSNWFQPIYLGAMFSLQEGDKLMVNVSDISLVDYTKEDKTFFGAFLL
Procedure: (§3) Dilutions of TL1A antibody were incubated with 10⁵ TL1A CHO cells in 100 ul FACS buffer for 1 hr. Cells were washed two times with FACS buffer and antibody binding was detected by staining with PE anti human […] antibody and evaluated by FACS.
(§4) FACS assays were used to verify that antibodies of the disclosure are binding to native TL1A expressed on cells. Briefly, dilutions of antibody in PBS 1% BSA plus 0.5% sodium azide (FACS buffer) were incubated with transfected CHO cells expressing TL1A (10⁵ cells) for 30-60 minutes at 4 C. Cells were washed twice by centrifugation, aspiration of supernatant, and addition of fresh FACS buffer. Antibody binding to TL1A on cells was detected by incubating the cells in PE (Phycoerythrin) labeled goat anti-human IgG (Fc specific) antibody for 30 min at 4C, washing the cells 2× as above, and analyzing by FACS (FIG. 1).

Hu-TL1A-His = target: T3, Hu-TL1A-His (Homo sapiens, UniProt O95150); test: SPR (Biacore), 10A4.F7 captured on a protein G surface, Hu-TL1A-His as analyte at 250, 200, 150, 100 and 50n
T3 construct: recombinant, His-tagged; also called Hu-TL1A-His antigen (Lot#50182AS151)
T3 sequence (ligand chain, looked up): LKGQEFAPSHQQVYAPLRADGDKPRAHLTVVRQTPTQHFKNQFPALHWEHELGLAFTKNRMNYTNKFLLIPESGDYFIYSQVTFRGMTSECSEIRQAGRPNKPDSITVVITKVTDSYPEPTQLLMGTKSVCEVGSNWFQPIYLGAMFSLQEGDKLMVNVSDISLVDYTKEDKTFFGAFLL
Procedure: Protein G chip (CM5) was made by coating it […] using acetate buffer (pH2.9). 10A4.F7 mab (7.5 ug/mL, 12 uL) was captured at 10 uL/min flow rate on Protein G surface. Hu-TL1A-His antigen (Lot#50182AS151) at multiple concentrations (250, 200, 150, 100 & 50n) were flowed over captured mab for 5 min at 25 ul/min and allowed to dissociate for 7.5 min. Protein G surface was regenerated with 10 uL of 50 mM NaOH and 5 uL of 25 mM HCL at 100 uL/min flow rate. Data was analyzed by using Biaevaluation 3.1. (FIG. 3)

[4] = target: T2, TL1A expressed on transfected CHO cells; test: flow cytometry, titration of the antibody on TL1A CHO cells, PE anti-human IgG (Fc specific) detection
Procedure: as §3, §4

B1: monoclonal antibody 10A4.F7 (antibody, V domains shown)
VH: QLQLQESGPGLVKPSETLSLTCTVSGGSISSRSYYWGWIRQPPGKGLEWIGSIYYNGRTYYNPSLKSRVTISVDTSKNQFSLKLSSVTAADTAVYYCAREDYGDYGAFDIWGQGTMVTVSS
VL: AIQLTQSPSSLSASVGDRVTITCRASQGISSALAWYQQKPGKAPKLLIYDASSLESGVPSRFSGSGSGTDFTLTISSLQPEDFATYYCQQFNSYPLTFGGGTKVEIK
notes: Hybridoma subclone of parental clone 10A4 (KM mouse, human IgG kappa); also called TL1A 2596.10A4.F7
Q: Which results are given for B1?
A: IC50 [1]: 0.524 nM; IC50 [2]: 0.525 nM; EC50 [3]: 0.407 nM; Kd (Hu-TL1A-His): 0.38 nM; koff (Hu-TL1A-His): 2.9e-05 s⁻¹; kon (Hu-TL1A-His): 75000 M⁻¹ s⁻¹; EC50 [4]: 0.4 nM
